Test results from patent publication US20230399385A1 (NANJING VAZYME BIOTECH, published 2023).

Tests used:
[1] = target: SARS-CoV-2 spike (S) glycoprotein, wild-type, on pseudotyped virus (SARS-CoV-2, UniProt P0DTC2 14-1273); experiment: cell-based or functional assay
[2] = target: T1, SARS-CoV-2 RBD (receptor binding domain of the spike protein of SARS-CoV-2; Vazyme Biotech) (SARS-CoV-2, UniProt P0DTC2 319-541); experiment: biolayer interferometry, ForteBio Octet RED96e, RBD 100 nM to 3.13 nM, 1:1 Langmuir model
[3] = target: T1, SARS-CoV-2 RBD (receptor binding domain …); experiment: method not stated in this sentence (summary of Example 1); biolayer interferometry in Example 2
[4] = target: T1, SARS-CoV-2 RBD (receptor binding domain …); experiment: HTRF ACE2/RBD binding assay (665/620 ratio): Antibody 5-10 titrated, blocked ligand ACE2
[5] = target: T1, SARS-CoV-2 RBD (receptor binding domain …); experiment: ELISA: SARS-CoV-2 RBD coated on the plate, Antibody 5-10 titrated, detected with anti-human IgG-HRP/TMB, OD450

B1: Antibody 5-10 (antibody, V domains shown)
VH: EVQLLESGGGLVQPGGSLRLSCAASGFTFSSYAMSWVRQAPGKGLEWVSAIVGSGGSTYYADSVKGRFIISRDNSKNTLYLQMNSLRAEDTAVYYCAKSLIYGHYDILTGAYYFDYWGQGTLVTVSS
VL: DIQMTQSPSSVSASVGDRVTIPCRASQGIGNWLAWYQQKPGKAPKLLIYAASSLQSGVPSRFSGSGSGTDFTLTISSLQPEDFATYYCQQANSFPPFGQGTRLEIK
notes: also called anti-SARS-CoV-2 RBD Antibody 5-10; monoclonal Antibody 5-10
IC50, neutralizing effects on SARS-CoV-2 pseudovirus [1]: 0.0425 µg/mL
Kd [2]: 4.32 nM
Kd [3]: 4.31 nM
IC50 [4]: 0.231 µg/mL
EC50 [5]: 0.0269 µg/mL
